From patent US8598312B2, “Inhibitors of antigen presentation by MHC class II molecules” (Provid Pharmaceuticals, Inc., priority 2003, dated 2013)
Where a SMILES comes first, the peptide text is derived from it. Where no end group is shown, it is not given here. [ ]: non-standard residue; d: D form. Ala(indol-4-yl) = N[C@@H](Cc1cccc2[nH]ccc12)C(=O)O; Gly(cPent) = N[C@H](C(=O)O)C1CCCC1; Tic = O=C(O)[C@@H]1Cc2ccccc2CN1; Chg = N[C@H](C(=O)O)C1CCCCC1; Pip = O=C(O)[C@@H]1CCCCN1; Idg = not defined here

What was measured:
DRB1*1501 molecules = DRB1*1501 molecules (Homo sapiens, UniProt P01903+P01911); details: DR2 haplotype; cited from earlier work
DRB5*0101 molecules = DRB5*0101 molecules (Homo sapiens, UniProt P01903+Q30154); details: DR2 haplotype; cited from earlier work
T cell proliferation = details: cited from earlier work
[1] = in vivo; cited from earlier work
[2] = biological target: MHC class II HLA-DR2 (DRA*0101/DRB1*1501) (human); test: competition binding assay, purified HLA-DR, biotinylated reference peptide SEQ ID NO 107 as competitor, L243 capture
DR13 (HLA-DR molecules) = test: HLA II binding assay, DR13; design: species or system human; details: read-out: Inhibition of peptide binding IC50 DR13
[3] = biological target: T1, MHC class II HLA-DR2 (DRA*0101/DRB1*1501) (human, UniProt P01903 26-254; P01911 30-266, limits assumed); test: competition binding assay, purified HLA-DR, biotinylated reference peptide SEQ ID NO 107 as competitor, L243 capture
T1 construct: mature; Detergent-solubilised native molecule purified from cells; also called DR2b

DR2a = biological target: T2, DR2a (human, UniProt P01903 26-216, limits assumed); test: competition binding assay, purified HLA-DR, biotinylated reference peptide (not named), L243 capture
T2 construct: mature

Row | Molecule | IC50 [3] | IC50 (DR2a) | also measured
1 | MBP (84-102): immunodominant myelin basic protein (84-102) peptide (DPGSRPHLIRLFSRDAPGR; Myelin basic protein; UniProt P02686 84-102, looked up, fragment) |  |  | binding affinity to DRB1*1501 molecules (DRB1*1501 molecules): high affinity; binding affinity to DRB5*0101 molecules (DRB5*0101 molecules): high affinity
2 | a(Cha)AAAKTAAAAa-NH2 |  |  | suppression of T cell proliferation in response to protein antigens (T cell proliferation): did not supress T cell proliferation; activity in animal models of autoimmune disease [1]: did not show activity
3 | Ac(Cpg)R(Tic)F(hPro) (peptide) |  |  | IC50 [2]: 0.075 µM
4 | CC(=O)N[C@H](C(=O)N[C@@H](CCCNC(=N)N)C(=O)N1Cc2ccccc2C[C@H]1C(=O)N[C@@H](Cc1ccccc1)C(=O)N1CCCC[C@H]1C(N)=O)C1CCCC1 [Ac(Cpg)R(Tic)F(hPro), Ac(Cpg)R(Tic)F(homo Pro)] (Ac-[Gly(cPent)]R[Tic]F[Pip]-NH2; N-terminus and C-terminus assumed) |  |  | IC50 (DR13 (HLA-DR molecules)): > 100 µM
5 | Ac-[Chg]RF[Ala(indol-4-yl)]KNI (not fully specified; printed as Ac(Chg)RF(4′-IndolylAla)KNI, also called Entry 79) [Ac(Chg)RF(4′-IndolylAla)KNI] | 0.006 µM | 3.58 µM | 
6 | Ac-[Gly(cPent)]RFFKNI (not fully specified; printed as Ac(Cpg)RFFKNI, also called Entry 25) [Ac(Cpg)RFFKNI] | 0.025 µM | 0.63 µM | 

More lines, main results first:

Row | IC50 [3] | IC50 (DR2a) | Molecule | also measured
7 | 0.003 µM | 0.685 µM | Ac-V[Chg]RFFK (not fully specified; printed as AcV(Chg)RFFK, also called Entry 85) [AcV(Chg)RFFK] | 
8 | 0.09 µM | 0.017 µM | Ac-[Idg]RFFKNI (not fully specified; printed as Ac(Idg)RFFKNI; reading uncertain, also called Entry 64) [Ac(Idg)RFFKNI] | 
9 | 0.45 µM |  | Ac-VHFFKNI (also called Entry 2) [AcVHFFKNI] | 
